These are literature values, as cited in publication PMC6557900.

This data set has as its target GHR pY487 pY487 region (Homo sapiens) (UniProt P10912).

Sequence of GHR pY487 pY487 region (Homo sapiens) (P10912 whole entry, looked up): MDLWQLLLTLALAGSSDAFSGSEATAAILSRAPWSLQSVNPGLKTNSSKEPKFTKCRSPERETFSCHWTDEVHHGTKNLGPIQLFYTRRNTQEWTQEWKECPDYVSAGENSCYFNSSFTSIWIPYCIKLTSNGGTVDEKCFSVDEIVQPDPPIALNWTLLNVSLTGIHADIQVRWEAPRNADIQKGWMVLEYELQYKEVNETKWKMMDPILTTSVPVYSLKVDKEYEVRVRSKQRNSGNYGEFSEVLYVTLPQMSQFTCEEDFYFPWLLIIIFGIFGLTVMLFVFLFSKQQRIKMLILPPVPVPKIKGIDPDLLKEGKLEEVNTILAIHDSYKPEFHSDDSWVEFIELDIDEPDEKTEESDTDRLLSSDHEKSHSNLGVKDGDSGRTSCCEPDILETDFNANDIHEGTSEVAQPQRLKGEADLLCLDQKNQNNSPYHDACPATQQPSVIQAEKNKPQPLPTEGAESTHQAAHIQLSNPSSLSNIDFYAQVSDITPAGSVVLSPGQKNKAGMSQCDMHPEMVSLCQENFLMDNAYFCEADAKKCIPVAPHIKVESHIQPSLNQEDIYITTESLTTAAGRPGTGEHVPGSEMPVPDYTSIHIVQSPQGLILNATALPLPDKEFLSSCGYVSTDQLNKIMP
Sequence of SOCS2 (O14508 whole entry): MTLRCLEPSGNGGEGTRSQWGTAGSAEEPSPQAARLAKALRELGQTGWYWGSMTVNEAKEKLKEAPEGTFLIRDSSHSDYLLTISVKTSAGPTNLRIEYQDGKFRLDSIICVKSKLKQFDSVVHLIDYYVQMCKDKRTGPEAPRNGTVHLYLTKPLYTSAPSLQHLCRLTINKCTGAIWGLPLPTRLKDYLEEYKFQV

As for SOCS2 (from UniProt O14508), the Kd – broadly, the free concentration of one partner at which half of the binding sites on the other are occupied at equilibrium, for simple one-to-one binding – is 11.3 µM.
